Reference: patent US20120107299

Tested on: GST protein [GST: P08515]
Sequence (P08515 whole entry): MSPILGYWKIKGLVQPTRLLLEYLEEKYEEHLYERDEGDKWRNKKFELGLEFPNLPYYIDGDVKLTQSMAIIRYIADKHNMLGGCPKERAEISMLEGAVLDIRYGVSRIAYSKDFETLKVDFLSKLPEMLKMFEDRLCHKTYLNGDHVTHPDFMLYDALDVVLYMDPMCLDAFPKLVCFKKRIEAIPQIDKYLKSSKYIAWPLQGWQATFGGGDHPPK

Substance: FLAG-PTEN
- in vitro dephosphorylation of PTEN, Western blot with anti-PTEN antibodies specific to each phosphorylation: dephosphorylation of PTEN was not recognized in the GST protein
